From paper PMC4377080, “Probing Bunyavirus N protein oligomerisation using mass spectrometry” (Rapid Communications in Mass Spectrometry, 2014)
Several values for one entry are separate records, joined by “and”; a condition that tells them apart may be missing. Identical values can stand only once.

Tests used:
[1] = target: the molecule itself; assay: native MS; nano-ESI-MS of RNA-free N protein (10 μM monomer) incubated with synthetic 24-mer RNA
[2] = target: the molecule itself; assay: native MS; nano-ESI-MS of RNA-free N protein (10 μM monomer) incubated with synthetic 12-mer RNA; 2:1 N/RNA molar ratio for BUNV-N
[3] = target: the molecule itself; assay: native MS; nano-ESI-MS of BUNV-N bound to endogenous E. coli RNA (as purified; traces also left after the RNA-removal step); ammonium acetate buffer pH 6.8
[4] = target: the molecule itself; assay: native MS; nano-ESI-MS of RNA-free N protein (10 μM monomer) incubated with synthetic 48-mer RNA
[5] = target: the molecule itself; assay: native MS; nano-ESI-MS of RNA-free N protein (10 μM monomer) incubated with synthetic 60-mer RNA
[6] = target: T1, SBV-N nucleocapsid protein (Schmallenberg virus, UniProt H2AM13 1-233); assay: native nanoESI-MS; N:RNA 4:4 (major), 8:8, 10:10, 12:12; 50 mM ammonium acetate, pH 6.8 (stated for RNA-free BUNV-N); 10 uM final N protein (monomer basis); temperature not given; conditions: protein: recombinant; tags: His6-SUMO, removed; chain copies: 4
T1 sequence: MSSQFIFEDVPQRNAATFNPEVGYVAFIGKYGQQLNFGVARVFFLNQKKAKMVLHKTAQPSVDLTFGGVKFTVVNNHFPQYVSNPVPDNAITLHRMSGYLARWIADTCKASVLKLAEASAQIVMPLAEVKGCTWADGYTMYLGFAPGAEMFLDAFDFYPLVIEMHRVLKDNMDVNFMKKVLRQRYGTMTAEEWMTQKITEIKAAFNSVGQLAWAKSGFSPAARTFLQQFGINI

[7] = target: T2, BUNV-N nucleocapsid protein (Bunyamwera virus, UniProt P16495 1-233); assay: native nanoESI-MS; N:RNA 3:2, 3:3, 4:4 (3:3 and 4:4 major); mixed at 2:1; 50 mM ammonium acetate, pH 6.8 (stated for RNA-free BUNV-N); 10 uM final N protein (monomer basis); temperature not given; conditions: protein: recombinant; tags: His6-SUMO, removed
[8] = target: T1, SBV-N nucleocapsid protein; assay: native nanoESI-MS, CID MS/MS; N:RNA 4:2, 5:2; 4:2 also in mixture with BUNV-N; 50 mM ammonium acetate, pH 6.8 (stated for RNA-free BUNV-N); 10 uM final N protein (monomer basis); temperature not given; conditions: protein: recombinant; tags: His6-SUMO, removed; chain copies: 4
[9] = target: T2, BUNV-N nucleocapsid protein; assay: native nanoESI-MS, CID MS/MS; N:RNA 3:1, 4:2 (major), 5:2, 6:3; 4:2 also in mixture with SBV-N; 50 mM ammonium acetate, pH 6.8 (stated for RNA-free BUNV-N); 10 uM final N protein (monomer basis); temperature not given; conditions: protein: recombinant; tags: His6-SUMO, removed
[10] = target: T2, BUNV-N nucleocapsid protein; assay: native nanoESI-MS; N:RNA 5:1; 50 mM ammonium acetate, pH 6.8 (stated for RNA-free BUNV-N); 10 uM final N protein (monomer basis); temperature not given; conditions: protein: recombinant; tags: His6-SUMO, removed
[11] = target: T1, SBV-N nucleocapsid protein; assay: native nanoESI-MS; N:RNA 3:1, 4:1 (major), 4:2, 5:2; 50 mM ammonium acetate, pH 6.8 (stated for RNA-free BUNV-N); 10 uM final N protein (monomer basis); temperature not given; conditions: protein: recombinant; tags: His6-SUMO, removed; chain copies: 4
[12] = target: T2, BUNV-N nucleocapsid protein; assay: native nanoESI-MS; N:RNA 6:1, low population; 50 mM ammonium acetate, pH 6.8 (stated for RNA-free BUNV-N); 10 uM final N protein (monomer basis); temperature not given; conditions: protein: recombinant; tags: His6-SUMO, removed
[13] = target: T1, SBV-N nucleocapsid protein; assay: native nanoESI-MS; N:RNA 4:1 and 5:1 (equal major), 6:1, 8:1; 50 mM ammonium acetate, pH 6.8 (stated for RNA-free BUNV-N); 10 uM final N protein (monomer basis); temperature not given; conditions: protein: recombinant; tags: His6-SUMO, removed; chain copies: 4

B1: Bunyamwera virus nucleocapsid (N) protein (natural protein)
chain: MIELEFHDVAANTSSTFDPEVAYANFKRVHTTGLSYDHIRIFYIKGREIKTSLAKRSEWEVTLNLGGWKITVYNTNFPGNRNNPVPDDGLTLHRLSGFLARYLLEKMLKVSEPEKLIIKSKIINPLAEKNGITWNDGEEVYLSFFPGSEMFLGTFRFYPLAIGIYKVQRKEMEPKYLEKTMRQRYMGLEAATWTVSKLTEVQSALTVVSSLGWKKTNVSAAARDFLAKFGINM
notes: Nucleocapsid (N) protein of Bunyamwera virus (BUNV); As purified it carries E. coli RNA (tetramer with about 44 nt); the RNA-free form is obtained by high salt treatment; also called BUNV-N; BUNVN; source: tag removed; endogenous RNA removed with high ionic strength buffers where stated
stoichiometry N [1]: 5 and 6
stoichiometry N [2]: 3
stoichiometry N [3]: 4

B2: Schmallenberg virus nucleocapsid (N) protein (natural protein)
chain: MSSQFIFEDVPQRNAATFNPEVGYVAFIGKYGQQLNFGVARVFFLNQKKAKMVLHKTAQPSVDLTFGGVKFTVVNNHFPQYVSNPVPDNAITLHRMSGYLARWIADTCKASVLKLAEASAQIVMPLAEVKGCTWADGYTMYLGFAPGAEMFLDAFDFYPLVIEMHRVLKDNMDVNFMKKVLRQRYGTMTAEEWMTQKITEIKAAFNSVGQLAWAKSGFSPAARTFLQQFGINI
notes: Nucleocapsid (N) protein of Schmallenberg virus (SBV); measured monomer mass 26 269 Da; also called SBV-N; SBVN; source: tag removed; high salt-treated
stoichiometry N [1]: 5
stoichiometry N [4]: 3
stoichiometry N [5]: 6
stoichiometry N [2]: 4 and 8 and 10 and 12

B3: 12-mer RNA (ssRNA)
RNA: AGUAGUGUACUC
binding result [6]: binds
binding result [7]: binds

B4: 24-mer RNA (ssRNA)
RNA: AGUAGUGUACUCCACACUACAAAC
binding result [8]: binds
binding result [9]: binds

B5: 48-mer RNA (ssRNA)
RNA: AGUAGUGUACUCCACACUACAAACUUGCUAUUGUUGAAAAUCGCUGUG
binding result [10]: binds
binding result [11]: binds

B6: 60-mer RNA (ssRNA)
RNA: AGUAGUGUACUCCACACUACAAACUUGCUAUUGUUGAAAAUCGCUGUGCUAUUAAAUCCA
binding result [12]: binds
binding result [13]: binds
